# Measurements: paper PMC11850643 (Nature Communications, 2025)
# B1: full-length MmpL4 (M. tuberculosis) (natural protein)
# chain: MSTKFANDSNTNARPEKPFIARMIHAFAVPIILGWLAVCVVVTVFVPSLEAVGQERSVSLSPKDAPSFEAMGRIGMVFKEGDSDSFAMVIIEGNQPLGDAAHKYYDGLVAQLRADKKHVQSVQDLWGDPLTAAGVQSNDGKAAYVQLSLAGNQGTPLANESVEAVRSIVESTPAPPGIKAYVTGPSALAADMHHSGDRSMARITMVTVAVIFIMLLLVYRSIITVVLLLITVGVELTAARGVVAVLGHSGAIGLTTFAVSLLTSLAIAAGTDYGIFIIGRYQEARQAGEDKEAAYYTMYRGTAHVILGSGLTIAGATFCLSFARMPYFQTLGIPCAVGMLVAVAVALTLGPAVLHVGSRFGLFDPKRLLKVRGWRRVGTVVVRWPLPVLVATCAIALVGLLALPGYKTSYNDRDYLPDFIPANQGYAAADRHFSQARMKPEILMIESDHDMRNPADFLVLDKLAKGIFRVPGISRVQAITRPEGTTMDHTSIPFQISMQNAGQLQTIKYQRDRANDMLKQADEMATTIAVLTRMHSLMAEMASTTHRMVGDTEEMKEITEELRDHVADFDDFWRPIRSYFYWEKHCYGIPICWSFRSIFDALDGIDKLSEQIGVLLGDLREMDRLMPQMVAQIPPQIEAMENMRTMILTMHSTMTGIFDQMLEMSDNATAMGKAFDAAKNDDSFYLPPEVFKNKDFQRAMKSFLSSDGHAARFIILHRGDPQSPEGIKSIDAIRTAAEESLKGTPLEDAKIYLAGTAAVFHDISEGAQWDLLIAAISSLCLIFIIMLIITRAFIAAAVIVGTVALSLGASFGLSVLLWQHILAIHLHWLVLAMSVIVLLAVGSDYNLLLVSRFKQEIGAGLKTGIIRSMGGTGKVVTNAGLVFAVTMASMAVSDLRVIGQVGTTIGLGLLFDTLIVRSFMTPSIAALLGRWFWWPLRVRSRPARTPTVPSETQPAGRPLAMSSDRLG
# Biological target: the molecule itself
# Assay: SEC
protein,measurement,value
B1,binding result,binds
